The values below come from publication PMC6993860 (Biochemical Journal, 2020).

Data set [1] deals with the molecule itself. The data set is described as follows: SEC. (In gel filtration, larger molecules generally elute earlier.)
Data set [2] concerns the molecule itself. The data set is described as follows: SEC. The source holds these as a separate data set.

Changes are numbered by the printed parent chain. In names and notes the source's numbering stands. Read-outs that look alike come from different tables or passages of the source.

Usually stoichiometry N stands for the number of molecules, sites or subunits per partner or assembly.

B1: HtrA3 S305A (enzyme)
chain: LHQLSSPRYKFNFIADVVEKIAPAVVHIELFLRHPLFGRNVPLSSGSGFIMSEAGLIITNAHVVSSNSAAPGRQQLKVQLQNGDSYEATIKDIDKKSDIATIKIHPKKKLPVLLLGHSADLRPGEFVVAIGSPFALQNTVTTGIVSTAQREGRELGLRDSDMDYIQTDAIINYGNAGGPLVNLDGEVIGINTLKVTAGISFAIPSDRITRFLTEFQDKQIKDWKKRFIGIRMRTITPSLVDELKASNPDFPEVSSGIYVQEVAPNSPSQRGGIQDGDIIVKVNGRPLVDSSELQEAVLTESPLLLEVRRGNDDLLFSIAPEVVM
Regarding B1, in the data set “SEC [1]”, the “stoichiometry N” value was found to be 3.

B2: HtrA3 F142A (enzyme)
chain: B1 chain with F13A, A176S
Consider B2, for which, in the data set “SEC [2]”, the “stoichiometry N” value was determined as 3.
